In patent US20150266957A1 (Regeneron, published 2015):

B1: H4H6706P (antibody, human IgG4, V domains shown)
VH: EVQLVESGGGLIKPGGSLRLSCAASGFTFSNAWMSWVRQAPGKGLEWVGRIKRKSDGGTTDYAAPVKGRFTISRDDSKNTMYLQMNSLKTEDTAVYYCTPSGSYYGYWGQGTLVTVSS
VL: not shown
B2: H4H6669P (antibody, human IgG4, V domains shown)
VH: EVQLVESGGGLVKPGGSLRLSCAASGFTFSNAWMTWVRQAPGKGLEWVGRIKRKNDGGTIDYAAPVKGRFTISRDDSKNTLYLQMNSLRTEDTAVYYCIPSGSYYGYWGQGTLVTVSS
VL: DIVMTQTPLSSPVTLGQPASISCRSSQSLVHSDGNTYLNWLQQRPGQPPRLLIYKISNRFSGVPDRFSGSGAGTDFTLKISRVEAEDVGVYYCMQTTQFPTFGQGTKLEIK
B3: H4H6680P (antibody, human IgG4, V domains shown)
VH: EVQLVESGGGLVKPGGSLRLSCAVSGFTFSNAWMTWVRQTPGKGLEWVGRIKRKNEGGTIDYAAPVKGRFTISRDDSKNTLYLQMNSLKTEDTAVYYCTPSGSYYGYWGQGTLVTVSS
VL: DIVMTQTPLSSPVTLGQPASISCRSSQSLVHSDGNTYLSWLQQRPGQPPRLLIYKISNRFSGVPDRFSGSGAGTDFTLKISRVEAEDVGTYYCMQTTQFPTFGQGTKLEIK
B4: H4H6698P (antibody, human IgG4, V domains shown)
VH: EVQLVESGGGLVKPGGSLRLSCAASGFTFSNVWMTWVRQAPGKGLEWVGRIKTKTDGGTTDYAAPVKGRFTISRDDSKNSLYLQMSSLKTEDTAVYYCTTGHTSYWGQGTLVTVSS
VL: not shown
B5: H4H6701P (antibody, human IgG4, V domains shown)
VH: EVQLVESGGGLVKPGGSLRLSCAASGFTFSNAWMTWVRQAPGKGLEWVGRTKTKTEGGTTDYAAPVKGRFTISRDDSKNTLYLQMNSLKTEDTAVYYCTTGHIFYWGQGTLVTVSS
VL: not shown
B6: H4H6385N (antibody, human IgG4, V domains shown)
VH: EVQVVESGGGLVKPGGSLRLSCAASGFTFSNVWMTWVRQAPGKGLEWVGRIKSKIEGGTTDYAASVKGRFTISRDDSKNTQSLQMNSLKSEDTAVYYCSTGHLAYWGQGTLVIVSS
VL: DIVMTQTPLSSPVSLGQPASISCRSSQSLVHSDGSTYLSWLQQRPGQPPRLLIYKISNRFSGVPDRFSGSGAGTDFTLKISRVEAEDVGIYYCMQATQFPTFGQGTKVEIK
notes: Form used in SPR and calcium assays; also called H4HM6385N
B7: H4H6663P (antibody, human IgG4, V domains shown)
VH: EVQLVESGGGLVKPGGSLRLSCAASGFTFSNAWMSWVRQVPGKGLEWVGRIKSKTDGGTTDYAAPVKGRFTISRDDPKNTLYLQMYSLKTEDTAVYYCTTRSMQYWGQGTLVTVSS
VL: DIVMTQTPLSSPVTLGQPASISCRSSQSLVHSDGYTYLNWLQQRPGQPPRLLIYKISNRFSGVPDRFSGSGAGTDFTLKISRVEAEDVGIYYCMQATQFPTFGQGTKVEIK

Experiments:
human PROKR1 [1] = molecular target: T1, human PROKR1 (human, UniProt Q8TCW9 1-393); assay: cell-based or functional assay
T1 sequence (Q8TCW9 whole entry): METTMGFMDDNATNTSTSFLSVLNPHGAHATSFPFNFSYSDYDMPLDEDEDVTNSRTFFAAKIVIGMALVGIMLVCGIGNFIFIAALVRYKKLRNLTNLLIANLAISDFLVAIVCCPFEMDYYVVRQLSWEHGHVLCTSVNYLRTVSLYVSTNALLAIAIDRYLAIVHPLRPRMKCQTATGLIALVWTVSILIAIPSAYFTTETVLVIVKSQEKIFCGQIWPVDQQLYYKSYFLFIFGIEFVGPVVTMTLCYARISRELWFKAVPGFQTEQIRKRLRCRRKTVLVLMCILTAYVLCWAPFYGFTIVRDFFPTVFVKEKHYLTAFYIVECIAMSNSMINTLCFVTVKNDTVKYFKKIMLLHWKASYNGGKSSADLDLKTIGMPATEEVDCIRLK

human PROKR2(1-53)-hFc [2] = molecular target: T2, human PROKR2(1-53)-hFc (human); assay: SPR (Biacore 4000), 25 C, antibody captured
T2 construct: also called soluble human PROKR2 (N-terminal portion)
Description: (§1) Kinetic experiments were carried out using HBS-EP (10 mM HEPES, 150 mM NaCl, 3 mM EDTA, 0.05% Surfactant P20, pH 7.4) as both the running buffer and the sample buffer. Antigen-antibody association rates were measured by injecting 2 concentrations (25 and 100 nM) of both human PROKR1 (1-62)-hFc (SEQ ID NO:179) and human PROKR2(1-53)-hFc (SEQ ID NO:180) over the captured antibody surface. Antibody-antigen association was monitored for 90 seconds while dissociation was monitored for 360 seconds. Kinetic on-rate (kₐ) and off-rate (kd) constants were determined from the data using Scrubber software version 2.0 c. Binding dissociation equilibrium constants (KD) and dissociative half-lives (t 1/2) were calculated from the kinetic rate constants as: KD=kd/kₐ and t 1/2=ln(2)/kd.

human PROKR2 [3] = molecular target: T3, human PROKR2 (human, UniProt Q8NFJ6 1-384); assay: flow cytometry, HEK293 cells expressing the target
T3 construct: Expressed on engineered HEK293 or CHO cells; also called hPROKR2; prokineticin receptor 2
T3 sequence (Q8NFJ6 whole entry): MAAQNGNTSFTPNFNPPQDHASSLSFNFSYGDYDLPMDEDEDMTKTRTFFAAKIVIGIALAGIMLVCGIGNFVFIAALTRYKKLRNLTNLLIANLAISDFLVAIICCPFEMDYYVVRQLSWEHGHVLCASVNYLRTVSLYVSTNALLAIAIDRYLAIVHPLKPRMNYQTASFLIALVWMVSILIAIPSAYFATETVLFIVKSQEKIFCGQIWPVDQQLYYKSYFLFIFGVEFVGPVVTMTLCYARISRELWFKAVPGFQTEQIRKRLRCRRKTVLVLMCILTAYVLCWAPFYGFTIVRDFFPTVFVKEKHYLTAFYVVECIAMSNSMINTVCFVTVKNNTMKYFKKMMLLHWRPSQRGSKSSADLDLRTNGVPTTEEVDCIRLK
Description: (§2) Anti-PROKR antibodies generated in accordance with Example 1 were tested for the ability to bind to human, mouse, and monkey PROKR1 and PROKR2. For these experiments, HEK293 cells were engineered to express: human PROKR1; human PROKR2; mouse PROKR1; mouse PROKR2; cynomolgus monkey PROKR1; or cynomolgus monkey PROKR2. Binding of anti-human PROKR antibodies to the PROKR-expressing cell lines was measured by flow cytometry.
(§3) Adherent cells were collected using 1 mM EDTA in PBS, then washed, and re-suspended in cold PBS containing 5% FBS. For the binding experiments, each anti-PROKR antibody was added to 250,000 cells in 500 μl of PBS with 5% FBS (final antibody concentration of 13 nM). After incubation for 20 minutes at room temperature, the cells were washed with PBS containing 5% FBS. A secondary antibody, recognizing either human (Jackson Immuno Research, #115-135-205) or mouse Fc (BD Pharmigen, #550826) and conjugated to allophycyanin, was then added to the cell mixture at a final concentration of 13.3 nM. After incubating for 20 minutes on ice, the cells were washed and resuspended in PBS containing 5% FBS and then sorted and analyzed on a FACSCalibur (BD Biosciences) flow cytometer to determine relative binding by the candidate antibodies. The cell samples containing secondary antibody alone were used as negative control for FACS gating. Histograms of cells stained with anti-human PROKR antibodies were compared with cells stained with secondary alone. […] ND=not determined.

human PROKR1 (1-62)-hFc = molecular target: T4, human PROKR1 (1-62)-hFc (human); assay: SPR (Biacore 4000), 25 C, antibody captured, antigen injected at 25 and 100 nM
T4 construct: also called soluble human PROKR1 (N-terminal portion)
T4 sequence (chain, as listed by the source limits assumed): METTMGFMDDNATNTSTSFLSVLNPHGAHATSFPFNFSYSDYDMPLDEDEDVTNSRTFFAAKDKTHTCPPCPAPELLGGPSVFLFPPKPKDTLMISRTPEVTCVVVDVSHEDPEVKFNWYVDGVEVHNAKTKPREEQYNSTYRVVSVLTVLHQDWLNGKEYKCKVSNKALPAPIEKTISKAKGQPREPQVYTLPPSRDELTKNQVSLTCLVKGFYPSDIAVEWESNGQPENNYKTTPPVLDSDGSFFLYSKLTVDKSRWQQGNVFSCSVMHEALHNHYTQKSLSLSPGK
Description: as §1

mouse PROKR1 = mouse PROKR1 (mouse (Mus musculus), UniProt Q9JKL1 1-393); assay: cell-based or functional assay
Sequence of mouse PROKR1 (Q9JKL1 whole entry): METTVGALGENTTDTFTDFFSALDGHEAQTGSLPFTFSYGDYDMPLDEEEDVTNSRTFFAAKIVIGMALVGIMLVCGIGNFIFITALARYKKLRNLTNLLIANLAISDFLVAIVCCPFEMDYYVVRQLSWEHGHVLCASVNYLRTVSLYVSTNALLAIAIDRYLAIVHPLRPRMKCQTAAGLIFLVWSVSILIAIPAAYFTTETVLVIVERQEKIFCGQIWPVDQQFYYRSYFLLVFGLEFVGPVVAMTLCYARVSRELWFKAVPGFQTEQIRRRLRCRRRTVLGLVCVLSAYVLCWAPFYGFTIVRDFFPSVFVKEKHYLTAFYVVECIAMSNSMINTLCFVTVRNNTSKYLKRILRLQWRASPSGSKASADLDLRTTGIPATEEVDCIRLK

human PROKR2(1-53)-hFc [4] = molecular target: T2, human PROKR2(1-53)-hFc; assay: SPR (Biacore 4000), 25 C, antibody captured, antigen injected at 25 and 100 nM
Description: as §1

cynomolgus monkey PROKR1 = cynomolgus monkey PROKR1 (cynomolgus monkey (Macaca fascicularis), UniProt G7PMD0 1-393); assay: cell-based or functional assay
Sequence of cynomolgus monkey PROKR1 (G7PMD0 entry or part of it): as the sequence (Q8TCW9 whole entry) above, with V22A, T31A, S40G, I82V, V135I, K210R, V246F, D348N, V350A counted along it

rat PROKR1 = rat PROKR1 (rat (Rattus norvegicus), UniProt Q8R416 1-393); assay: cell-based or functional assay
Sequence of rat PROKR1 (Q8R416 whole entry): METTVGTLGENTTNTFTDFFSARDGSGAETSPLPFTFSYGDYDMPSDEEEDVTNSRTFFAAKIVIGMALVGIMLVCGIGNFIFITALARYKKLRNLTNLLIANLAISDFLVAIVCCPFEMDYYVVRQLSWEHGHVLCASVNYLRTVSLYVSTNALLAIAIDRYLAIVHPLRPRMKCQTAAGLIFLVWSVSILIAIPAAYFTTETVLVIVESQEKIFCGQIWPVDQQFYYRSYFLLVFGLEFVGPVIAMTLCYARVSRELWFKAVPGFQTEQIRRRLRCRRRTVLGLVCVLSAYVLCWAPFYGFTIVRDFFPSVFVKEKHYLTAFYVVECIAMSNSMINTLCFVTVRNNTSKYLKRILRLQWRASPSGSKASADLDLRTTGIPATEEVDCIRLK

human PROKR1 [5] = molecular target: T1, human PROKR1; assay: cell-based or functional assay; remark: listed apart in the source
human PROKR2 [6] = molecular target: T3, human PROKR2; assay: flow cytometry, HEK293 cells expressing the target, 13 nM antibody
Description: as §2, §3

mouse PROKR2 = molecular target: T5, mouse PROKR2 (mouse (Mus musculus), UniProt Q8K458 1-381); assay: as above
T5 construct: whole, on cells; Expressed on engineered HEK293 or CHO cells; also called mPROKR2; CHO/mPROKR2
T5 sequence (Q8K458 whole entry): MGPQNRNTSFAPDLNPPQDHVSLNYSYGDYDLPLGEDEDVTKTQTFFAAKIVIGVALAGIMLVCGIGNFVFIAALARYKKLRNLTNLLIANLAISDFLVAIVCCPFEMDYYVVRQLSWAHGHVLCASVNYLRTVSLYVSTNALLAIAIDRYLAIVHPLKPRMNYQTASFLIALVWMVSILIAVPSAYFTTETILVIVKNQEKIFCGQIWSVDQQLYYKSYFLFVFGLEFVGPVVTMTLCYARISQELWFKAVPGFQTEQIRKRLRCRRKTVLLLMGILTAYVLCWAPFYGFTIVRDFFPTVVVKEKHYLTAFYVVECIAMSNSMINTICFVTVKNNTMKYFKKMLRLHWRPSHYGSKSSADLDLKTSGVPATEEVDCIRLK
Description: as §2, §3

Binder	Block (%), calcium flux, hPROKR1 + PK1 (20 nM hPK1) (human PROKR1 [1]) [%]	IC50 (nM), inhibition of calcium flux, hPROKR1 + PK1 (20 nM hPK1) (human PROKR1 [1]) [nM]	Kd (human PROKR1 (1-62)-hFc) [nM]	koff (human PROKR1 (1-62)-hFc) [s⁻¹]	kon (human PROKR1 (1-62)-hFc) [M⁻¹ s⁻¹]	t½ (human PROKR1 (1-62)-hFc) [min]	Block (%), calcium flux, mPROKR1 + PK1 (1 nM hPK1) (mouse PROKR1) [%]	Kd (human PROKR2(1-53)-hFc [4]) [nM]	koff (human PROKR2(1-53)-hFc [4]) [s⁻¹]	kon (human PROKR2(1-53)-hFc [4]) [M⁻¹ s⁻¹]	t½ (human PROKR2(1-53)-hFc [4]) [min]	Block (%), calcium flux, hPROKR1 + PK1 (1 nM hPK1) (human PROKR1 [1]) [%]	Block (%), calcium flux, hPROKR1 + PK2 (1 nM hPK2) (human PROKR1 [1]) [%]	IC50 (nM), inhibition of calcium flux, hPROKR1 + PK1 (1 nM hPK1) (human PROKR1 [1]) [nM]	IC50 (nM), inhibition of calcium flux, hPROKR1 + PK2 (1 nM hPK2) (human PROKR1 [1]) [nM]	Block (%), calcium flux, MfPROKR1 + PK1 (5 nM hPK1) (cynomolgus monkey PROKR1) [%]	Block (%), calcium flux, MfPROKR1 + PK2 (0.5 nM hPK2) (cynomolgus monkey PROKR1) [%]	IC50 (nM), inhibition of calcium flux, MfPROKR1 + PK1 (5 nM hPK1) (cynomolgus monkey PROKR1) [nM]	IC50 (nM), inhibition of calcium flux, MfPROKR1 + PK2 (0.5 nM hPK2) (cynomolgus monkey PROKR1) [nM]	Block (%), calcium flux, rPROKR1 + PK1 (1 nM hPK1) (rat PROKR1) [%]	other results
B1	59.1	11.2	1.09	0.000213	196000	54	–	–	–	–	–	–	–	–	–	–	–	–	–	–	binding result (human PROKR2(1-53)-hFc [2]): no binding (tested: 25 and 100 nM antigen injected); binding result (human PROKR2 [3]): no binding
B2	52.4	14	0.264	6.23e-05	236000	186	0	–	–	–	–	–	–	–	–	–	–	–	–	–	binding result (human PROKR2(1-53)-hFc [2]): no binding (tested: 25 and 100 nM antigen injected); binding result (human PROKR2 [3]): no binding
B3	51	16.4	0.197	4.55e-05	231000	254	0	4.23	0.000253	59900	46	–	–	–	–	–	–	–	–	–	–
B4	–	–	1.12	0.000287	255000	40	0	16.1	0.00857	533000	1	101	40	8.5	> 300	99.3	85.7	32.9	63.9	0	IC50 (nM), blocking of hPK1 induced calcium flux, CHO/hPROKR1 non-induced (40 nM hPK1) (human PROKR1 [5]): 3.1 nM; IC50 (nM), blocking of hPK2 induced calcium flux, CHO/hPROKR1 non-induced (4 nM hPK2) (human PROKR1 [5]): 27.4 nM; binding result (human PROKR2 [6]): binds; binding result (mouse PROKR2): binds
B5	–	–	1.07	0.000412	385000	28	20.9	2.41	0.00215	891000	5	98.5	56.6	6.6	> 300	101	50.5	6.4	> 300	0	IC50 (nM), inhibition of calcium flux, mPROKR1 + PK1 (1 nM hPK1) (mouse PROKR1): > 300 nM; IC50 (nM), blocking of hPK1 induced calcium flux, CHO/hPROKR1 non-induced (40 nM hPK1) (human PROKR1 [5]): 4.1 nM; IC50 (nM), blocking of hPK2 induced calcium flux, CHO/hPROKR1 non-induced (4 nM hPK2) (human PROKR1 [5]): 21.9 nM; binding result (human PROKR2 [6]): binds; binding result (mouse PROKR2): binds
B6	–	–	0.461	0.000136	294000	85	0	11	0.00539	489000	2	101	77.5	6.3	55.1	101	93.7	6.7	51.8	0	IC50 (nM), blocking of hPK1 induced calcium flux, CHO/hPROKR1 non-induced (40 or 80 nM hPK1, average) (human PROKR1 [5]): 14.2 nM; IC50 (nM), blocking of hPK2 induced calcium flux, CHO/hPROKR1 non-induced (4 nM hPK2) (human PROKR1 [5]): 20 nM
B7	15.5	> 1000	10.6	0.0062	583000	2	–	129	0.0134	104000	1	–	–	–	–	–	–	–	–	–	binding result (human PROKR2 [6]): binds
